Laboratory results taken from patent US10975357B2, “Methods and compositions related to differentiated lung cells” (TRUSTEES OF BOSTON UNIVERSITY, priority 2017, dated 2021).

Columns and labels:
[1] = system: NKX2-1+ lung epithelial progenitor cells; test: SFTPCtdTomato reporter induction in day 15 NKX2-1+ progenitor outgrowth in 3D culture (flow cytometry); format: cell-based, human; conditions: for further SFTPC induction efficiency with addition of the factor: factor added to differentiation media, FIG. 9B
Description: Purification of NKX2-1+ Lung Progenitors by Cell Sorting. On day 15 of differentiation, cells were incubated at 37° C. in 0.05% trypsin-EDTA (Invitrogen) for 7-15 minutes, until they reached single cell suspension. Cells were then washed in media containing 10% fetal bovine serum (FBS, ThermoFisher), centrifuged at 300g×5 minutes, and resuspended in sort buffer containing Hank's Balanced Salt Solution (ThermoFisher), 2% FBS, 10 μM Y-27632, and 10 uM calcein blue AM (Life Technologies) for dead cell exclusion. Cells not containing the NKX2-1GFP reporter were subsequently stained with CD47-PerCPCy5.5 and CD26-PE antibodies (mouse monoclonal; Biolegend 1:200; 1×10^6 cells in 100 ul) for 30 minutes at 4° C., washed with PBS, and resuspended in sort buffer. Cells were passed through a 40 um strainer prior to sorting (Falcon). Various live cell populations indicated in the text (i.e. GFP+, GFP−, CD47hi/CD26−,CD47lo) were sorted on a high-speed cell sorter (MoFlo Legacy). Directed Differentiation of NKX2-1+ Lung Progenitor Outgrowth into iAEC2s Day 15 cells, either sorted (as described above) or unsorted (dissociated as described above), were resuspended in undiluted growth factor-reduced matrigel (Corning) at a dilution of 50-100 cells/ul, with droplets ranging in size from 20 ul in 96 well plates to 1 ml in 10 cm tissue culture-treated dishes (Corning). Cells in matrigel suspension were incubated at 37° C. for 20-30 minutes, then warm media was added to the plates.
(§1) Where indicated in the text, outgrowth and distal/alveolar differentiation of cells after day 15 was performed in “CK+DCI” medium, consisting of cSFDM base, with 3 μM CHIR99021, 10 ng/mL rhKGF, and 50 nM dexamethasone (Sigma), 0.1 mM 8-Bromoadenosine 3′,5′-cyclic monophosphate sodium salt (Sigma) and 0.1 mM 3-Isobutyl-1-methylxanthine (IBMX) (Sigma) (DCI). Immediately after replating cells on Day 15 10 μM Y-27632 was added to the medium for 24 hours. Additional growth factors or cytokines were added or withdrawn as indicated in the text, including FGF10, TGFb, EGF, OSM (20 ng/ml), TNFa (10 ng/ml), and IL-1b (10 ng/ml) with other concentrations listed in figure legends (FIGS. 9A, 9B).
Alveolosphere Long Term Culture, Dissociation, and Differentiation. […] These spheres were analyzed as follows: Z-stack images of live alveolospheres were taken and processed on a Keyence (Osaka, Japan) BZ-X700 fluorescence microscope. […] To generate single cell suspensions, cell pellets were incubated in 0.05% trypsin and continued through the trypsin-based dissociation protocol described above, after which they could be passaged into fresh matrigel, analyzed by flow cytometry, or sorted as described above. […]

JAK/STAT3 pathway = test: Cytokine stimulation of PSC-derived alveolospheres, JAK/STAT3 pathway (Western blot phospho-STAT3, SOCS3 RT-qPCR); format: cell-based, human; conditions: OSM 20 ng/ml
Description: as §1
Reverse Transcriptase Quantitative Real Time Polymerase Chain Reaction (RT-qPCR). RT-qPCR was performed as previously described (Hawkins et al. 2017,). Briefly, RNA was isolated according to manufacturer's instructions using the Qiagen miRNeasy mini kit (Qiagen, Venlo, Netherlands). cDNA was generated by reverse transcription of up to 150 ng RNA from each sample using the Applied Biosystems High-Capacity cDNA Reverse Transcription Kit. […] Relative gene expression was calculated based on the average cycle (Ct) value of the technical triplicates, normalized to 18S control, and reported as fold change (2(−ΔΔCT)), with a fold change of 1 being assigned to undifferentiated (day 0) iPSCs or ESCs. […]

B1: BMP4: recombinant human BMP4 (protein, UniProt P12644 293-408, looked up)
Bone morphogenetic protein 4: SPKHHSQRARKKNKNCRRHSLYVDFSDVGWNDWIVAPPGYQAFYCHGDCPFPLADHLNSTNHAIVQTLVNSVNSSIPKACCVPTELSAISMLYLDEYDKVVLKNYQEMVVEGCGCR
With B1 the “further SFTPC induction efficiency with addition of the factor” value [1] was “No consistent further SFTPC induction efficiency”.

B2: FGF10: Recombinant human FGF10 (protein, UniProt O15520 38-208, looked up)
Fibroblast growth factor 10: QALGQDMVSPEATNSSSSSFSSPSSAGRHVRSYNHLQGDVRWRKLFSFTKYFLKIEKNGKVSGTKKENCPYSILEITSVEIGVVAVKAINSNYYLAMNKKGKLYGSKEFNNDCKLKERIEENGYNTYASFNWQHNGRQMYVALNGKGAPRRGQKTRRKNTSAHFLPMVVHS
With B2 the “further SFTPC induction efficiency with addition of the factor” value [1] was “No consistent further SFTPC induction efficiency”.

B3: KGF: Recombinant human KGF, agonist of FGF signaling (protein, UniProt P21781 32-194, looked up)
Fibroblast growth factor 7: CNDMTPEQMATNVNCSSPERHTRSYDYMEGGDIRVRRLFCRTQWYLRIDKRGKVKGTQEMKNNYNIMEIRTVAVGIVAIKGVESEFYLAMNKEGKLYAKKECNEDCNFKELILENHYNTYASAKWTHNGGEMFVALNQKGIPVRGKKTKKEQKTAHFLPMAIT
With B3 the “need for initial induction of the tdTomato reporter” value ([1]; component removed from media, FIG. 9A, 9B) was “dispensable” and the “promoting outgrowth of tdTomato+ cells by day 21, combined with CHIR, compared to FGF10+CHIR” value ([1]; day 21, FIG. 9B) was “more consistent”.

B4: OSM: Recombinant human OSM, cytokine activating the JAK/STAT3 pathway (protein, UniProt P13725 26-221, looked up)
Oncostatin-M: AAIGSCSKEYRVLLGQLQKQTDLMQDTSRLLDPYIRIQGLDVPKLREHCRERPGAFPSEETLRGLGRRGFLQTLNATLGCVLHRLADLEQRLPKAQDLERSGLNIEDLEKLQMARPNILGLRNNIYCMAQLLDNSDTAEPTKAGRGASQPPTPTPASDAFQRKLEGCRFLHGYHRFMHSVGRVFSKWGESPNRSRR
B4 was tested, and the “STAT3 signaling (phosphorylated STAT3 protein, SOCS3 mRNA)” value (JAK/STAT3 pathway) was “significant and rapid activation of STAT3 signaling”.
